The conditions of the data set: Bacillus amyloliquefaciens; pH 6.3; Thermal; DSC; MES 50 mM; whole UniProt chain shown.

This is an account of results in FireProtDB (doi:10.1006/jmbi.1999.2569).

B1: Ribonuclease wild type, P00648 (protein)
chain: MMKMEGIALKKRLSWISVCLLVLVSAAGMLFSTAAKTETSSHKAHTEAQVINTFDGVADYLQTYHKLPDNYITKSEAQALGWVASKGNLADVAPGKSIGGDIFSNREGKLPGKSGRTWREADINYTSGFRNSDRILYSSDWLIYKTTDHYQTFTKIR
Usually Tm stands for the temperature at the midpoint of the melting transition. As for B1, the Tm came to 54.1 °C.
